Measurements as given in the DeepSol protein solubility set.

experiment: soluble on expression in E. coli; label from the status in PepcDB or PDB records

Sequence	soluble on expression in E. coli
MGSDKIHHHHHHVNSDNNPNQISDIKPILKVYIENSGSMDGYMCDGSQLKDAIFDYVSDLSTCVDTTQLYYINNRVIPYHADLEQYIKTMNPITFQKAGGNRSNSDLSKMLSTVLDAMTDSTVSIFVSDCILDLPVSDAQRFLSTCQISIKNTINKGRKNIPLLGVEILKMKSDFNGKYFYQNGGSEVLTNVKRPYYIWIFGNSNVLAKLNTEVLFKGLEKYGYDNIISYCPKTSIPYDITNRALISKTINPIKGDYNATIRADFCTTLQSEDVLLNLDNYSFNNQNLIIENIKPIIATEREYSHFINITIPKGVNIAEDYLILKAPNMPSWVLESNDESGENVKGNLDKTTGIKYLIGGVSDAYKKDNVLTTLKFTVKRK	not soluble
MKKQLLIVDGYNMIGAWPELVQLKKQERLEDARELLLSRLSNYAKYEGLEIIVVFDAQLVPGIQQTYKKYLLTVVFTKEDETADSYIERLAGEKNDRLTQVTVATSDLAEQWVVFSQGALRTSANELYKAVQKTEKTIAIHATDIHFQQFRRNSPWNVEQLSKLSEKLEELSQKKD	not soluble
MRKSLTDIYEARVDAEELRADPAQHAVLEDLEGIRQWLEAHPERKRGLFGLFAAKEEPPKGLYLWGGVGRGKSMIMDLFTEAVEIPMKRRVHFHAFMQEVQQGMHEARKKGVEDALQPVADSVAGQVRLLAFDEMQITDITDAMVVGRLFQKLFEQGVVIVTTSNRPPEGLYENGLNREVFLPFIDLLRERMTVIELESPTDYRQHRLQGAQVFFHPARKAEQAIARIWSDLTGGDRGHPMRLPVNGRTVEIPRFANGVGRATFWGLCARPLGPADFLAIAEACRVLILEDIPRLSAENYNEAKRFVTLIDALYEARVRLIASAADEPERLYIEGEGSFEFERTASRLREMQSADWANLEHHHHHH	not soluble
MGSDKIHHHHHHMITENIKKEILRRIRNAEKEHNVKVLYAVESGSRAWGFESPNSDYDVRFIYAHPKDWYVSVDLEYKRDVIEYEIVDEIDINGWDIRKALQLFSKSNPAFVEWIQSSIVYVDDHSFAKGARQLLDTVYSVEKGIYHYRSMAKTNYRGYLKEEIVPIKKYFYVLRPLLSIMWLEKYQKPAPIEFVKLRTLIPTGSTIDQAISDLLERKKRSLEKEYAPAVPVLNAFIESELDRLENYQDSPQRNSSHMESLNSLFRVSIS	not soluble
MAHHHHHHMREKTTSAATPMRCRKELAATLTRTRNSPRTPVTFELATERGLHNFSRRGPRVRAKSSIAVHAATASPLSLLEQTLWTEIEQLNAATNRLRERILEVKREFSADAIAAVTGGEPLPVEARTGGLFRNPPKQRGQNSKDEPPYAVTFTPSHSQKKAANVRLQFTSPRKTPMKENDSSVLTSLAMFEYTPQNDDHREGARPTENRNVLQELKRDETFETGTPVHLSEAATMGGPFVVDLQKSDHGAANNTAEKPTELSTSVDSARESAKHLLLQANMMGVEQDLNHYMSDLLAIQRDTLDAQKRGLIDPNDSSVRELRLGIRDELNACRARILTLESLQTSLSAGVATKKTIS	not soluble
MTTPRWLTQDEQSLWRLFLAMERKVTRGIDEELQSSQGLTTPEFSVLVSLSERPGHEIRLRDLCESLQWDRSRTSHQITRMQRRGLVTKTKCSDDARGVFVELTPEGEKRLREAAPGHVDVVRKLIFDVMTEEEAAVLRGYFQKVIDVQCGASTGNPLDD	not soluble
SLSPAPTTMDFTPAPLEDTSSRPQFCKWPCECPPSPPRCPLGVSLITDGCECCKMCAQQLGDNCTEAAICDPHRGLYCDYSGDRPRYAIGVCAQVVGVGCVLDGVRYNNGQSFQPNCKYNCTCIDGAVGCTPLCLRVRPPRLWCPHPRRVSIPGHCCEQWVCEDDAKRPRKTAPRDTGAFDAVGEG	soluble
SQFVLQDLQDATLGSLLSSLMQHCDPPQRKYPLEKGTPPPWWPTGNEEWWVKLGLPKSQSPPYRKPHDLKKMWKVGVLTAVINHMLPDIAKIKRHVRQSKCLQDKMTAKESAIWLAVLNQEESLIQQ	soluble
MAHHHHHHMHECKDDRVLEKIQQINGYENIKLGDKKVLCDEIWTVTRCDKKFSYWIRYYEEDKNGYSLSVLPTQLKNIYYFLKYYYF	not soluble
SMEDPDQLYTTLKNLLAQIKSHPSAWPFMEPVKKSEAPDYYEVIRFPIDLKTMTERLRSRYYVTRKLFVADLQRVIANCREYNPPDSEYCRCASALEKFFYFKLKEGGLIDK	soluble
MWLWRKLWGIGGTMSRNTEATDDVKTWTGGPLNYKEGFFTQLATDELAKGINEEVVRAISAKRNEPEWMLEFRLNAYHAWLEMEEPHWLKAHYDKLNYQDYSYYSAPSCGNCDDNCASEPGAVQQTGANAFLSKEVEAAFEQLGVPVREGKEVAVDAIFDSVSVATTYREKLAEQGIIFCSFGEAIHDHPELVRKYLGTVVPGNDNFFAALNAAVASDGTFIYVPKGVRCPMELSTYFRINAEKTGQFERTILVADEDSYVSYIEGCSAPVRDSYQLHAAVVEVIIHKNAEVKYSTVQNWFPGDNNTGGILNFVTKRALCEGENSKMSWTQSETGSAITWKYPSCILRGDNSIGEFYSVALTSGHQQADTGTKMIHIGKNTKSTIISKGISAGHSQNSYRGLVKIMPTATNARNFTQCDSMLIGANCGAHTFPYVECRNNSAQLEHEATTSRIGEDQLFYCLQRGISEEDAISMIVNGFCKDVFSELPLEFAVEAQKLLAISLEHSVG	soluble
MSLSIRLHIWGDYACFTRPEMKVERVSYDVMTPSAARGILEAIHWKPAIRWHIDRLHVLKPIRFQSIRRNEVGAKASASNAKSAMKKGSTEGLGIVVDENRQQRAAMVLTNVAYVIEAHFTMTEKAGPEDTPAKHLSMFNRRAAKGQCFHRPCLGTREFAAEFALLGENDPLPEAKPRLEVRDDDFGWMLHDIDFASGRNESHFFRAVMKDGVIEVPPFKSGEVVKEGHHHHHH	soluble
MCRIPVMIVSQPKQLKALSDPTRIKILELLREHPMSVSEIAERLGRDKSTVYRHIKALEDAGLVEVVEKIGNEVVYGRVAYVFLLVPNSNKEIEDLRRAYLSREVEKLIEVLEDSGIRIRDKEKFRSIVQKVFRDIENQSQHILSRLMNSSFDEIALIHILNFLTFLYSHKYVEESKQLFKLLDI	soluble
MFKSVAKCDKVEKMLLGTFNLTLDNKNRISLPAKLRSFFDSSIVINRGFENCLEIRKPADFESYFQTFNNFPNTQKDTRTLKRLIFANANLVELDSANRILIPNNLISDAKLDKEIVLIGQFDHLEVWDKVQYEQYLASSESLETVAERMKDAK	soluble
MLPRGALVLNPFSEKAVSPEDRDMVLRRGIAALDCSWKKVKKSSVIFQTARNHRSLPFLVAANPTNYGKPCILSTAEAVAATLYIVGLKDIASDIMSYFKWGPHFLDLNRELLEAYSRAENSLEVVEIQKKFIGGLEHHHHHH	not soluble
GPGSMGIPLPKPVMTQLQERYGNTIFRCGSNCVNGYRETMEDAHLTYLTDSWGFFGVFDGHVNDQCSQYLERAWRSAIEKESIPMTDERMKELALQIDQEWMDSGREGGSTGTFFVALKEGNKVHLQVGNVGDSRVVACIDGVCVPLTEDHKPNNEGERQRIENCAGRVENNRVDGSLAVSRAFGDREYKLGSGSQLEQKVIALADVQHKDLTFNSNDFVLLCCDGVFEGNFPNEEVVAYVKQQLETCNDLAEVAGSVCEEAIERGSRDNISCMIVQFKDGSDYAAAPHTTVVPGPFSAPRNSGFRKAYESMADKGNTTVGALLEKRYDTLKAAEALTPEETEELSQFENGPEAKLTGAERQKWFSNYFQKLCEAASNGPSDQMERLQSLQQQAGIPLSILLSLMGEQTQ	soluble
MGSDKIHHHHHHMNFLDGHLFPENQQPLIITAAPYAPGWLPSDFPEDIPVTMEEQIQKAVDCYNAGATVLHLHVRELDGKGSKRLSKFNELVAGVRKAVPEMIIQVGGSISFAPENEGQAAKWLSDDTRHMLADLEPTPDQVTVTVNTSQMNVTDHAEDADFRGTSRENPAIFNAYKEMTVPAQPGWVEEHVRRLTAKGIQSAFQCYNTNSFESVERLMRRGFYKGPLVMNWVAIGGGMDTPNVYSLGNFMRGVPDGAVVTVESNVRNVLPVNMMGIAMGLHVRCGTEDVLWNQKRTAKMSTVKQIEQLVRISHEFGREIATAKEAREISKIGVFYDTVEESLQANGFAPNRNGGTQGYLRKTR	not soluble
MGSDKIHHHHHHMTGTESGASGGQPANSDDWDAVTARREAEALIIDVDGFEGPLDLLLTLSRTQKVDLRRISILALTEQYLVFIEKARQLRIELAADYLVMAAWLAFLKSKLLLPPEPGEEGPSGEDLAAHLAFQLERLAAMRDCAARLMAQDRLGRDRFVRGQTQAMTTNRKVIYTAGLLDLMQAYARIRTKDEFRPFVMDREAVLTMEEALDRLRGMVGYMGDWADLMSYLPDGWTTDPAKRRSAAAANFAAALELAKAGRVEIRQADTFSPIQLRRKEP	not soluble
MGSDKIHHHHHHMGNKTSQKVLLELLKDRDRWVSGNEIADSLGVTRETIWKNINLLKKRGHQIQSQKNLGYKYESSSKLDEVVINFYKNKSVDHVAVEEQVDSTQMYAKNYLATHQVEKAFAVISEQQTQGYGRRGRSFYSPKEQGLYFSIVIPKPTFEINQVGLITTGVAYVIAQTFKDFFPEREFKLKWVNDILMNRRKVAGIITEAITEVESASTQAFVIGVGINLTTPEFPEELQQKAGAIVAKNEPNIDRNLIAAQLINTIVDNWQNYLDGSFLSEYRRMSIVIGKPVTLQVGTKQVKGIATDINEYGNIVVKLDDGQVKAFNNGEITKVNLDW	not soluble
MAHHHHHHMSTNSAKILSRVREAMKLHSINALIVPSSDPHNSEYVMDSYKCRGFLTNFNGSAGTCLITMEEAYLWTDGRYWLEAGHCLYPEWQLMRDGHPGVPSLEDFVRLNLQPDLLVGMNDNLATVAEWERRRKAINLVPIPEIVRPLMPQNSDAKAEMLSIRPEQFCGQTREEKVMALVEELKGQKCEAMILSALDEVAWLTNLRGSDVPYNPVFYSYALVRSAPDPTVALFVDSAKVSSPVEAELTQSGRSVVSVSLHPYEALEDYVRALPAGTAFLVDEYQTSQRLYSLLESCKMKVNRVKCGPAQRLKAVKNAVEIEGFRRCHVRDGVALTRYLAWLHDMIVVKGDTTITECSGADVVEGFRREQEHFVQLSFPTISSVGPNGAVVHYTPPKEGSATIVPDQLYLVDSGAQYLDGTTDVTRTVCFNPPSDEERQAYTLVLKGHLALHNAVWPTGTTGHRLDALARVHLWRYGLDYAHGTGHGVGSFLNVHEGPQGIGYRPTPTEATLAAGMIMSNEPGYYKAGKYGIRIENLEVIVRAPTRHSQEGFLTFEALTMVPLCRDLIDVSMLTADEVRLVNDYHRTVRDALTPHLRRVNDSCALAYVERHTAELCALEGGC	soluble
MSLRYIVALTGGIGSGKSTVANAFADLGINVIDADIIARQVVEPGAPALHAIADHFGANMIAADGTLQRRALRERIFANPEEKNWLNALLHPLIQQETQHQIQQATSPYVLWVVPLLVENSLYKKANRVLVVDVSPETQLKRTMQRDDVTREHVEQILAAQATREARLAVADDVIDNNGAPDAIASDVARLHAHYLQLASQFVSQEKPEGGSHHHHHH	soluble
MLQNPPRITSTASIVGPKEGKGPLRLFFDNIIEDEMWGEKSWEKAESKLIRETFSKVLQKGNKTSQEIDYVISGDLLNQCIAANFGLRESDVPFFGVYGACSTIAESMSIGAMLVDGGFADNVVCITSSHFCSAEKQFRFPLELGTQRPPSAQWTVTGSGGVLISNDGSGPYITHITTGKIVDMGIKDANNMGAAMAPAAVDTIVTHFKDTGFTPESYDLILTGDLGAIGREICVELTREQGFNIENIYNDCGLMIYDREKQDTHAGGSGCGCAATVFAGFVYKKLMDGTLKNVLFVATGALLSPVSTQQGESIPSIAHAISITTSPERLEHHHHHH	not soluble
MVPPKLKQALELFKSLPKELRSQVLLEYAAKVPPPPPGVELERVHECQTPFFVHADVEGGKVRLYFHVPDEAPTVKAFAGLLREGLEGESPEAVLEVPPGFYRGYGLEEFFTPLRLRGLEAALLRLQAQVRKALTS	soluble
